Changes are numbered by the printed parent chain. Names and notes keep the numbering of the source. Where two headings read alike, the source gives them in different places. Values belong to the binder of their own block, whether it stands above or below them.
How the values were obtained:
FcγRI = FcγRI (UniProt P12314 16-288, limits assumed); test: BLI (ForteBio), series of concentrations, not labelled on the sheet
FcγRIIa = target: T1, FcγRIIa (UniProt P12318 36-218, limits assumed); test: as above
T1 sequence (looked up): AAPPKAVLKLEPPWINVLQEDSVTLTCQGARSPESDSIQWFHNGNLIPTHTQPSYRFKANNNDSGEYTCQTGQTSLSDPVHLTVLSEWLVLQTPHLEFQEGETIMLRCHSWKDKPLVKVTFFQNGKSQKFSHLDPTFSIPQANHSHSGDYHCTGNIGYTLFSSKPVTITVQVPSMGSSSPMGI

FcγRIIIa-158F = FcγRIIIa-158F (UniProt P08637 17-208, limits assumed); test: as above
Sequence of FcγRIIIa-158F (P08637 17-208 limits assumed): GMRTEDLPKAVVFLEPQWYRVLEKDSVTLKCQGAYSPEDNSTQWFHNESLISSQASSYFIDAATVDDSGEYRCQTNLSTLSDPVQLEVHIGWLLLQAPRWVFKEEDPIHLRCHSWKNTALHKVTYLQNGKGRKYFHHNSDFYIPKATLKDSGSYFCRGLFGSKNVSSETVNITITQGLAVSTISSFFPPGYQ

mIL2-his [1] = target: T2, mIL2-his (mouse, UniProt P04351 21-169); test: ELISA, antibody captured by anti-human IgG, mIL2-his titrated
T2 construct: also called wild-type mouse IL-2 (with a his-tag); not shown: his-tag
T2 sequence (looked up): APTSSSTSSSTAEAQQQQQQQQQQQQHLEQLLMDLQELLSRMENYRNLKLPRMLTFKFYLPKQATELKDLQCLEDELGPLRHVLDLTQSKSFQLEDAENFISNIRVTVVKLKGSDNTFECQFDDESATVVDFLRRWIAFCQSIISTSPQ

hIL2-DM-his [2] = target: T3, hIL2-DM-his (human, UniProt P60568 21-153); test: BLI ForteBio, Ab on Protein A sensor
T3 construct: expressed in ExpiCHO-S cells, nickel-column purified; also called hIL-2 mutein containing two point mutations K64G and N90R (with a his-tag); not shown: his-tag
Target sequence in this assay (P60568 21-153 K84G/N110R): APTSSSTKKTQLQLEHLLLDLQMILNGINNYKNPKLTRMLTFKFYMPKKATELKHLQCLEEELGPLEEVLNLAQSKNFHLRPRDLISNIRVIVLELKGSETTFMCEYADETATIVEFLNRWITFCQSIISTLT

hIL2-his = target: T4, hIL2-his (human, UniProt P60568 21-153); test: ELISA (section 2.1.1): antibody (13.3 nM) captured on coated goat anti-human IgG, hIL2-his titrated (the x axis is the antigen concentration), HRP anti-6xHis
T4 construct: the construct is not described further; not shown: his-tag

mIL2-his [3] = target: T2, mIL2-his; test: BLI ForteBio, Ab on Protein A sensor
hIL2-DM-his [4] = target: T3, hIL2-DM-his; test: BLI ForteBio, Ab on Protein A sensor; remark: listed apart in the source
hIL2-TM-his = target: T5, hIL2-TM-his (human, UniProt P60568 21-153); test: BLI ForteBio, Ab on Protein A sensor
T5 construct: also called hIL-2 mutein containing three point mutations K64G, N90R and M104E (with a his-tag); not shown: his-tag
T5 chain: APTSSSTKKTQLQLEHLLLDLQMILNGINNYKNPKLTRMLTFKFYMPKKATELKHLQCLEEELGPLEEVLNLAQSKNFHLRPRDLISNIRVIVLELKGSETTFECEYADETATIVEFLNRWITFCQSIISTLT

Sequence of FcγRI (P12314 16-288 limits assumed): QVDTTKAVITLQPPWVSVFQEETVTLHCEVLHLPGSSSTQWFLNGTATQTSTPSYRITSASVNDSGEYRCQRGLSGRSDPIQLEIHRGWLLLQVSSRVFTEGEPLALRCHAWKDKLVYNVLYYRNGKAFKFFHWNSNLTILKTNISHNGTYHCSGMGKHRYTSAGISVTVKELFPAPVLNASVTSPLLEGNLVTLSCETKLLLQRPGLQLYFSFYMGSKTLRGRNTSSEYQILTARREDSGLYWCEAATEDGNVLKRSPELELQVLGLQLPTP

B1: K2G11-pITM (antibody)
VH: QVQLVQSGAEVKKPGATVKISCKVSGDTITAYYMHWVRQAPGQGLEWIGRIDPDDDSTKYAENFKGRVTITADTSTDTAYMELSSLRSEDTAVYYCTTITFLYSRELRWFAYWGQGTLVTVSSASTKGPSVFPLAPSSKSTSGGTAALGCLVKDYFPEPVTVSWNSGALTSGVHTFPAVLQSSGLYSLSSVVTVPSSSLGTQTYICNVDHKPSNTKVDKRVEPKSCDKTHTCPPCPAPEFEGGPSVFLFPPKPKDTLMISRTPEVTCVVVDVSHEDPEVQFNWYVDGVEVHNAKTKPREEQYNSTYRVVSVLTVLHQDWLNGKEYKCKVSNKALPASIEKTISKAKGQPREPQVYTLPPSRDELTKNQVSLTCLVKGFYPSDIAVEWESNGQPENNYKTTPPVLDSDGSFFLYSKLTVDKSRWQEGNVFSCSVMHEALHNHYTQKSLSLSPGK
VL: DIVLTQSPATLSLSPGERATLSCQASQYISNYLSWYQQKPGQAPRLLIYSATSLASGIPARFSGSRSGTDFTLTISSLEPEDFAVYYCLQHYSTPYTFGQGTKLEIK
notes: K2G11 with pI (N203D/K274Q/Q419E) and TM (L234F/L235E/P331S) mutations, EU numbering, in the hIgG1 heavy chain constant region; also called humanized anti-IL-2 antibody K2G11-pITM; copies: 2 + 2
binding result (FcγRI): no binding (tested: not printed on the sheet)
binding result (FcγRIIa): no binding (tested: not printed on the sheet)
binding result (FcγRIIIa-158F): no binding (tested: not printed on the sheet)

EC50 (mIL2-his [1]): 0.0183 µg/mL
Binding Response (nm) (hIL2-DM-his [2]): 0.133 nm
Kd (hIL2-DM-his [2]): 46.9 nM
koff (hIL2-DM-his [2]): 0.0193 s⁻¹
kon (hIL2-DM-his [2]): 413000 M⁻¹ s⁻¹
binding result (hIL2-his): no binding (tested: 2 µg/mL)
Kd (mIL2-his [3]): 1 nM
koff (mIL2-his [3]): 0.00018 s⁻¹
kon (mIL2-his [3]): 179000 M⁻¹ s⁻¹
Kd (hIL2-DM-his [4]): 45.3 nM
koff (hIL2-DM-his [4]): 0.01 s⁻¹
kon (hIL2-DM-his [4]): 222000 M⁻¹ s⁻¹
Kd (hIL2-TM-his): 24 nM
koff (hIL2-TM-his): 0.00569 s⁻¹
kon (hIL2-TM-his): 237000 M⁻¹ s⁻¹
B2: hS4B6-H6K3 (antibody, V domains shown)
VH: QVQLVQSGAEVKKPGATVKISCKVSGDTITAYYLHWVRQAPGQGLEWIGRIDPEDDSTKYAENFKNRVTITADTSTNTAYMELSSLRSEDTAVYYCTTVTFYYSRELRWFAYWGQGTLVTVSS
VL: B1 VL with Y28D, S30G, S56D, F71Y
notes: full antibody

Reference: US20250346644A1 (LATTICON SUZHOU BIOPHARMACEUTICALS, published 2025)
